Activity data for two sequences are collected here from patent publication US20160068865.

For data set [1], the system named is ZFN 17747 (IgM) (synthetic). Description: cell_activity. To be noted: pair 17747/17749, CMV promoter, C6 chromosomes cleaved (about 1% with CAG); 5 of 43 rats modified.
The test system of data set [2] is ZFN 17749 (IgM) (synthetic). Description: cell_activity. To be noted: pair 17747/17749, CMV promoter, C6 chromosomes cleaved (about 1% with CAG); 5 of 43 rats modified.

On to “AATTTGGTGGCCATGGGC (double strand) [IgM target of 17747]”, for which, in data set [1], the activity is 3%.

With “AGACAGGGGGCTCTC (double strand) [IgM target of 17749]”, in data set [2], the activity worked out at 3%.
